Experimental data from paper PMC7594083, “Preclinical Evaluation of the GRPR-Targeting Antagonist RM26 Conjugated to the Albumin-Binding Domain for GRPR-Targeting Therapy of Cancer” (Pharmaceutics, 2020).

Tests used:
[1] = Biodistribution in mice bearing PC-3 xenografts; format: in vivo, mice (BALB/c nu/nu female); details: female, BALB/c nu/nu, mouse, in vivo, iv, 40 pmol, total radioactivity
Protocol: (§1) Instant thin-layer chromatography (ITLC) results were analyzed using Cyclone® Plus (PerkinElmer). […] BALB/c nu/nu female mice were implanted subcutaneously with PC-3 cells in PBS (6.5 × 10^6 cells/mouse) on the hind leg. […] A group of four mice was used per data point. […] After euthanization, the organs of interest were collected and weighed, and the radioactivity content was measured on a gamma counter.

PC-3 xenografts = assay: Biodistribution in mice bearing PC-3 xenografts; format: in vivo, mice (BALB/c nu/nu female); details: mouse, in vivo
Protocol: as §1

[2] = In vivo targeting specificity in mice bearing PC-3 xenografts; details: female, BALB/c nu/nu, mouse, iv, total radioactivity, 40 pmol i.v., 72 h pi, 4 mice, SD, read-out: tumor activity uptake, non-blocked
Protocol: The activity content was measured using a 2840 automated gamma counter Wizard^2TM (PerkinElmer, Waltham, MA, USA). Instant thin-layer chromatography (ITLC) results were analyzed using Cyclone® Plus (PerkinElmer). Statistical analyses were performed by unpaired, two-tailed t-tests using GraphPad Prism 8 for Windows (GraphPad Software, San Diego, CA, USA); p values below 0.05 were considered significant.
BALB/c nu/nu female mice were implanted subcutaneously with PC-3 cells in PBS (6.5 × 10^6 cells/mouse) on the hind leg. Tumor size was 0.4 ± 0.2 g at the time of the experiment (2−3 weeks following implantations). A group of four mice was used per data point.
The mice were euthanized at 72 h post injection (pi).

GRPR [3] = molecular target: T1, GRPR (Homo sapiens, UniProt P30550); details: cited from earlier work
GRPR [4] = molecular target: T1, GRPR; details: in vivo; cited from earlier work
[5] = cited from earlier work
Description: However, as a consequence of the low amplitude for the melting curve of DOTA-ABD-RM26, the melting temperature can only be roughly estimated for this conjugate.

T1 sequence (P30550 whole entry): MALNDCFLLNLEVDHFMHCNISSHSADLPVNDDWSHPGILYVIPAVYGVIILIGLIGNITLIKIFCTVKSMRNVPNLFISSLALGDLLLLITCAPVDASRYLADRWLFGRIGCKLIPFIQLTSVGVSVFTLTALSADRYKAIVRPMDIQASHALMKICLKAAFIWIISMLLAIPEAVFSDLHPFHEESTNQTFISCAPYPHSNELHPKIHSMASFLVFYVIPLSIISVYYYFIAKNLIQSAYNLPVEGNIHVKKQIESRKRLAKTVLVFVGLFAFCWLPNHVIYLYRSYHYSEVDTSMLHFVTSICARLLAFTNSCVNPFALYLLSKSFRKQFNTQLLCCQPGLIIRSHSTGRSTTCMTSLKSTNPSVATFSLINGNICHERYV

CC[C@H](C)[C@H](NC(=O)[C@H](Cc1c[nH]cn1)NC(=O)[C@H](CC(C)C)NC(=O)[C@H](CCCCN)NC(=O)[C@H](CC(C)C)NC(=O)[C@H](C)NC(=O)[C@H](CCC(=O)O)NC(=O)[C@@H](NC(=O)CNC(=O)[C@H](CCC(=O)O)NC(=O)[C@@H](NC(=O)[C@@H](NC(=O)[C@H](CCCCN)NC(=O)[C@H](C)NC(=O)[C@H](CCCCN)NC(=O)[C@H](CC(N)=O)NC(=O)[C@@H](NC(=O)[C@H](CC(C)C)NC(=O)[C@H](CCCNC(=N)N)NC(=O)[C@H](CCCCN)NC(=O)[C@H](Cc1ccc(O)cc1)NC(=O)[C@H](Cc1ccccc1)NC(=O)[C@H](CC(=O)O)NC(=O)[C@H](CO)NC(=O)[C@@H](NC(=O)CNC(=O)[C@H](Cc1ccc(O)cc1)NC(=O)[C@H](CCCCNC(=O)CSCCC(=O)NCCOCCOCCOCCOCCC(=O)N[C@H](Cc1ccccc1)C(=O)N[C@@H](CCC(N)=O)C(=O)N[C@@H](Cc1c[nH]c2ccccc12)C(=O)N[C@@H](C)C(=O)N[C@H](C(=O)NCC(=O)N[C@@H](Cc1c[nH]cn1)C(=O)N[C@@H](CC(C)C)[C@@H](O)CC(=O)N[C@@H](CC(C)C)C(N)=O)C(C)C)NC(=O)[C@H](CC(=O)O)NC(=O)[C@H](CC(C)C)NC(=O)[C@H](CCC(=O)O)NC(=O)[C@H](CCCNC(=N)N)NC(=O)[C@H](CC(N)=O)NC(=O)[C@H](C)NC(=O)[C@H](CC(C)C)NC(=O)[C@@H](NC(=O)[C@H](CCCCN)NC(=O)[C@H](C)NC(=O)[C@H](CCC(=O)O)NC(=O)[C@H](C)NC(=O)[C@H](CC(C)C)NC(=O)CN1CCN(CC(=O)O)CCN(CC(=O)O)CCN(CC(=O)O)CC1)C(C)C)C(C)C)[C@@H](C)CC)[C@@H](C)O)C(C)C)C(C)C)C(=O)N[C@@H](CC(C)C)C(=O)N[C@@H](C)C(=O)N[C@@H](C)C(=O)N[C@@H](CC(C)C)C(=O)N1CCC[C@H]1C(N)=O [[^111In]In-DOTA-ABD-RM26, metal not drawn]
tissue uptake at 1 h ([1]; activity concentration in blood 1 h pi): 32 ± 4 %ID/g | tissue uptake at 1 h ([1]; bone uptake 1 h pi): 3.3 ± 0.4 %ID/g | tissue uptake at 24 h ([1]; bone uptake 24 h pi): 4.4 ± 0.5 %ID/g | tissue uptake at 1 h ([1]; kidney uptake 1 h pi): 35 ± 6 %ID/g | tissue uptake at 1 h ([1]; tumor activity uptake 1 h pi): 7 ± 2 %ID/g | tissue uptake at 24 h ([1]; tumor activity uptake 24 h pi): 11 ± 2 %ID/g | tissue uptake at 144 h ([1]; tumor activity uptake 144 h pi): 10 ± 1 %ID/g | activity uptake in other organs at 24 h pi (PC-3 xenografts): activity uptake remained stable in the majority of the other studied organs | tissue uptake at 72 h [2]: 10 ± 1 %ID/g

Mercaptopropionyl-[PEG4]-D-Phe-Gln-Trp-Ala-Val-Gly-His-Sta-Leu-NH2 [RM26]
pharmacokinetics (GRPR [3]): favorable pharmacokinetics | renal reabsorption (GRPR [4]): low renal reabsorption

bombesin
secondary structure upon interaction with lipids and membranes [5]: form alpha-helical structures
